The source of these data is article PMC5552852, “Structural basis for Ccd1 auto-inhibition in the Wnt pathway through homomerization of the DIX domain” (Scientific Reports, 2017).

B1: zebrafish Coiled-coil-DIX1 (zCcd1) DIX domain [zebrafish] / itself (parent)
chain: AAASTKVLYYTDRSLTPFLVNIPKRLGDVTLQDFKAAVDRHGSFRYHFKSLDPEFGTVKEEVFQDDAVIPGWEGKIVAWVEED

Variants of B1 are the subject of this test. In words: gel filtration. Conditions: with itself; read off a plot. In general terms: Size exclusion chromatography separates by hydrodynamic size, large species first.
Turning to AAASTKVLYFTDRSLTPFLVNIPKRLGDVTLQDFKAAVDRHGSFRYHFKSLDPEFGTVKEEVFQDDAVIPGWEGKIVAWVEED [chain 1 Y10F], the screen value was found to be 80 mL.
